Positions count from the first letter of the chain named. Names may count otherwise. One block for each binder: values may come before it.
Assays:
[1] = target: T1, GST-hTERT-HA (C-terminal region, amino acid 946-1132, of hTERT), O14746
T1 chain: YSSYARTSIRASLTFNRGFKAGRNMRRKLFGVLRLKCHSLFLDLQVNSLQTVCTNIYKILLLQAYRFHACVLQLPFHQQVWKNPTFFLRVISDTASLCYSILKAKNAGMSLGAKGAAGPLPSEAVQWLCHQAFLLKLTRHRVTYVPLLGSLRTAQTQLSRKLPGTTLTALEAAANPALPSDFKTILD

[2] = target: T2, Flag-hTERT (N-terminal Flag-tagged full-length hTERT) (human, UniProt O14746 1-1132); assay: co-immunoprecipitation from H1299 cells (anti-Flag IP, anti-V5 immunoblot), with MG132
T2 construct: expressed in transfected H1299 cells; also called Flag-tagged hTERT
Experimental: Amino acid sequences surrounding the RING finger domain in MKRN1 and mutants used in this study. Cysteines and a histidine in the RING finger domain are shown in red. Mutated residue in MKRN1^H307E is shown in blue. (C) H1299 cells co-transfected with hTERT-HA and MKRN1 -V5 were either untreated or treated for 2 hours with 10 μg/ml ALLnN. Anti-HA immunoprecipitates were analyzed by immunoblotting using an anti-V5 antibody probe. […] (D) H1299 cells co-transfected with Flag-hTERT and MKRN1-V5 were either untreated or treated for 2 hours with 10 μM MG132. Anti-Flag immunoprecipitates were analyzed by immunoblotting using an anti-V5 antibody probe. […] Flag-hTERT was visualized with an anti-Flag antibody probe.
H1299 cells were transiently transfected with the expression vectors indicated in the figure legends using TransFast transfection reagent (Promega, Medison, Wis.) according to the manufacturer's instructions. Cells were lysed with buffer containing 0.5% NP-40, 50 mM Tris-HCl (pH 7.5), 150 mM NaCl, 2 mM phenyl methylsulphonyl fluoride. […] When ubiquitin conjugates of hTERT were detected, immunoprecipitation was performed with lysis buffer containing 0.1% SDS to dissociate its interacting proteins. […]

[3] = target: T2, Flag-hTERT (N-terminal Flag-tagged …); assay: inferred from the dominant negative effect in the in vivo ubiquitination assay in H1299 cells
Experimental: H1299 cells were transiently transfected with the expression vectors indicated in the figure legends using TransFast transfection reagent (Promega, Medison, Wis.) according to the manufacturer's instructions. Cells were lysed with buffer containing 0.5% NP-40, 50 mM Tris-HCl (pH 7.5), 150 mM NaCl, 2 mM phenyl methylsulphonyl fluoride. After centrifugation at 12,000 rpm for 30 min, the supernatants were immunoprecipitated for 2 hours with anti-Flag (Sigma, St. Louis, Mo.) or anti-HA (Santa Cruz biotechnology, Santa Cruz, Calif.) antibodies and then incubated with Sepharose beads conjugated to Protein G (Amersham Biosciences Inc., Piscataway, N.J.). When ubiquitin conjugates of hTERT were detected, immunoprecipitation was performed with lysis buffer containing 0.1% SDS to dissociate its interacting proteins. Immunoblot analyses were performed using anti-hTERT (Santa Cruz biotechnology, Santa Cruz, Calif.), anti-V5 (Invitrogen, Carlsbad, Calif.), anti-HA, and anti-Flag antibodies.
To investigate whether MKRN1 contributes to the ubiqitination of hTERT in vivo, H1299 cells were cotransfected with Flag-hTERT, HA-ubiquitin, and MKRN1-V5 constructs, and immunoprecipitated with anti-Flag antibody followed by immunoblotting with anti-HA antibody. Ubiquitin conjugates of hTERT were easily detected in the presence of MG132 (FIG. 4B, lane 2 in upper blot). […]

- binding result [2]: binds
B1: MKRN1-V5 (enzyme, not shown: small tags and cut ends)
chain: MAEAATPGTTATTSGAGAAAATAAAASPTPIPTVTAPSLGAGGGGGGSDGSGGGWTKQVTCRYFMHGVCKEGDNCRYSHDLSDSPYSVVCKYFQRGYCIYGDRCRYEHSKPLKQEEATATELTTKSSLAASSSLSSIVGPLVEMNTGEAESRNSNFATVGAGSEDWVNAIEFVPGQPYCGRTAPSCTEAPLQGSVTKEESEKEQTAVETKKQLCPYAAVGECRYGENCVYLHGDSCDMCGLQLLHPMDAAQRSQHIKSCIEAHEKDMELSFAVQRSKDMVCGICMEVVYEKANPSERRFGILSNCNHTYCLKCIRKWRSAKQFESKIIKSCPECRITSNFVIPSEYWVEEKEEKQKLILKYKEAMSNKACRYFDEGRGSCPFGGNCFYKHAYPDAGREEPQRQKVGTSSRYRAQRRNHFWELIEERENSNPFDNDEEEVVTFELGEMLLMLLAAGGDDELTDSEDEWDLFHDELEDFYDLDL
notes: Full-length MKRN1 expressed in transfected H1299 cells
- in vitro ubiquitination assay (anti-HA immunoblot) [1]: the C-terminal domain (residues 946-1132) of hTERT was efficiently ubiquitinated by wild-type MKRN1

- binding result [3]: binds
B2: MKRN1^H307E-V5 (enzyme, not shown: small tags and cut ends)
chain: B1 chain with H307E
notes: Expressed in transfected H1299 cells together with wild-type MKRN1-V5; also called hMKRN1^H307E
- in vitro ubiquitination assay (anti-HA immunoblot) [1]: but not by mutants MKRN1^307E or MKRN1^ΔC

Source: US20070224199A1 (UNIVERSITY OF CENTRAL FLORIDA RESEARCH FOUNDATION, published 2007)
